{
  "source": "patent US10563171B2",
  "about": "“Method for inducing differentiation of pluripotent stem cells into germ cells” (Kyoto University, priority 2015, dated 2020)",
  "key": {"BTAG 585B1-868 hiPSCs": {"tested_on": "BTAG 585B1-868 hiPSCs", "assay": "Induction of iMeLCs from hiPSCs having induction capacity into BTAG positive cells (FACS of BTAG(+) cells)", "type": "cell-based, human", "conditions": "added during induction of iMeLC; FIG. 10D, 10E", "description": "(§1) Initial mesoderm-like cells (iMeLCs) were induced by seeding hiPSCs maintained in StemFit™ in a 12 well plate coated with human plasma fibronectin (Millipore, FC010) at 1.0-2.0×10^5 cells per well in GK15 medium [GMEM containing 15% KSR, 0.1 mM NEAA, 2 mM L-glutamine, 1 mM sodium pyruvate and 0.1 mM 2-mercaptoethanol (Life Technologies)] containing 50 ng/ml activin A, 3 μM CHIR99021 and 10 μM ROCK inhibitor (Y-27632; Wako Pure Chemical Industries). The hiPSCs were induced by seeding in a low-cell-binding V-bottom 96 wellplate (Thermo, 81100574) at 3.0×10^3 cells per well in GK15 added with 1000 U/ml LlF (Millipore, #LIF1005), 200 ng/ml BMP 4,100 ng/ml SCF (R&D Systems, 455-MC), 50 ng/ml EGF (R&D Systems, 236-EG), and 10 μM ROCK inhibitor. For investigation of conditions and induction of iMeLCs or hPGCLC, PD173074 (StemGent, #04-0008) or LDN193189 (StemGent, #04-0074) was respectively added. Other than the above, WNT3A (R&D Systems, 5036-WN) was used instead of CHIR99021, and BMP2 (R&D Systems, 355-BM), BMP7 (R&D Systems, 354-BP), or BMP8A (R&D Systems, 1073-BP) was used instead of BMP4.\n(§2) Floating aggregates containing hPGCLCs were separated by treating with 0.05% Trypsin-EDTA/PBS at 37° C. for 10 min. […] The collected cells were suspended in FACS buffer (0.1% BSA in PBS) and analyzed by a flow cytometer (ARIA III; BD Biosciences). […]"}, "iMeLCs": {"tested_on": "iMeLCs", "assay": "Induction of BTAG positive cells (hPGCLCs) from iMeLCs in floating aggregates", "type": "cell-based, human", "conditions": "combination of BMP4, LIF, SCF and EGF changed; FIG. 11A-D", "description": "as §1, §2"}},
  "data": [
    {"molecule": "BMP4: bone morphogenetic 4 (protein, UniProt P12644 293-408, looked up) Bone morphogenetic protein 4: SPKHHSQRARKKNKNCRRHSLYVDFSDVGWNDWIVAPPGYQAFYCHGDCPFPLADHLNSTNHAIVQTLVNSVNSSIPKACCVPTELSAISMLYLDEYDKVVLKNYQEMVVEGCGCR", "values": [
      {"measurement": "effect of signaling on iMeLCs induction", "setting": "BTAG 585B1-868 hiPSCs", "result": "acts negatively"},
      {"measurement": "role in induction of BTAG positive cells from iMeLCs", "setting": "iMeLCs", "result": "essential"}
    ]}
  ]
}
